Assay results as given in article PMC10491584, “Structural convergence endows nuclear transport receptor Kap114p with a transcriptional repressor function toward TATA-binding protein” (Nature Communications, 2023).
Values joined by “and” are separate entries in the source; they are usually repeats but may differ in a detail not shown here. Equal entries are not always repeated.

Experiments:
Kap114pΔ(932-941) = target: T1, Kap114pΔ(932-941) (S. cerevisiae, UniProt P53067 1-1004, Δ(932-941)); assay: ITC; Kap114p (wild type or mutant) 50 uM in the sample cell, partner 500 uM in the syringe; 25 °C; 20 mM HEPES pH 7.4, 150 mM NaCl; triplicate; settings: both partners purified
T1 construct: Kap114p, S. cerevisiae, full length with residues 932-941 deleted; also called Kap114p(D932-941); Kap114p deletion mutant lacking the HEAT19 loop (a.a. 932-941); source: E. coli (Rosetta strain), purified (GST resin, MonoQ, Superdex 200)
T1 sequence (looked up): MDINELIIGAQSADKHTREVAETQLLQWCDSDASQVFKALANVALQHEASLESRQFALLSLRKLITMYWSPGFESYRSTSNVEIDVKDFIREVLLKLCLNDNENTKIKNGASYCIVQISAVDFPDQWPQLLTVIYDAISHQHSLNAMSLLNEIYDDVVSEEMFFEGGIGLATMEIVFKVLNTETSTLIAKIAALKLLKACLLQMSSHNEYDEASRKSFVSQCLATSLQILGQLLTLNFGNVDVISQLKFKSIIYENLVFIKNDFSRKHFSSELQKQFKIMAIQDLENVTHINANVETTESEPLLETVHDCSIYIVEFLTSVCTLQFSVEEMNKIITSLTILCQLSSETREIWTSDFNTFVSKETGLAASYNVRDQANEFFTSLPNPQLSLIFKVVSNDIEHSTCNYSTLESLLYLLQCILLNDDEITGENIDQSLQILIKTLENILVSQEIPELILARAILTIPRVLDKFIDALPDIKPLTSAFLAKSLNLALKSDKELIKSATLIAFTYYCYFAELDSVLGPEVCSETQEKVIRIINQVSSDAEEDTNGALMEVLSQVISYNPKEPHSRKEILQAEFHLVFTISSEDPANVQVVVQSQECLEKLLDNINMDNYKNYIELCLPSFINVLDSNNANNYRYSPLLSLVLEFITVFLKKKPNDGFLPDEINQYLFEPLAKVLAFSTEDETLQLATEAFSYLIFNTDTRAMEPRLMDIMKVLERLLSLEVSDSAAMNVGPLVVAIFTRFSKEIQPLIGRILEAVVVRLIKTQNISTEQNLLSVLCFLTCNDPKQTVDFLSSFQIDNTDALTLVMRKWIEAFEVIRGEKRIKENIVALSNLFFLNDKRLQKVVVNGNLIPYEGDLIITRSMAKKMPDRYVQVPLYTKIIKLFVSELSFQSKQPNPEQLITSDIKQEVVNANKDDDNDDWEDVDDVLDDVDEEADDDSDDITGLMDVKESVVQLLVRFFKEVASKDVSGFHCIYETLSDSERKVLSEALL

Kap114pΔY939 = target: T2, Kap114pΔY939 (S. cerevisiae, UniProt P53067 1-1004, ΔY939); assay: as above; settings: both partners purified
T2 construct: Kap114p, S. cerevisiae, full length with residue Y939 deleted; also called Kap114p(DY939); source: E. coli (Rosetta strain), purified (GST resin, MonoQ, Superdex 200)
T2 sequence (looked up): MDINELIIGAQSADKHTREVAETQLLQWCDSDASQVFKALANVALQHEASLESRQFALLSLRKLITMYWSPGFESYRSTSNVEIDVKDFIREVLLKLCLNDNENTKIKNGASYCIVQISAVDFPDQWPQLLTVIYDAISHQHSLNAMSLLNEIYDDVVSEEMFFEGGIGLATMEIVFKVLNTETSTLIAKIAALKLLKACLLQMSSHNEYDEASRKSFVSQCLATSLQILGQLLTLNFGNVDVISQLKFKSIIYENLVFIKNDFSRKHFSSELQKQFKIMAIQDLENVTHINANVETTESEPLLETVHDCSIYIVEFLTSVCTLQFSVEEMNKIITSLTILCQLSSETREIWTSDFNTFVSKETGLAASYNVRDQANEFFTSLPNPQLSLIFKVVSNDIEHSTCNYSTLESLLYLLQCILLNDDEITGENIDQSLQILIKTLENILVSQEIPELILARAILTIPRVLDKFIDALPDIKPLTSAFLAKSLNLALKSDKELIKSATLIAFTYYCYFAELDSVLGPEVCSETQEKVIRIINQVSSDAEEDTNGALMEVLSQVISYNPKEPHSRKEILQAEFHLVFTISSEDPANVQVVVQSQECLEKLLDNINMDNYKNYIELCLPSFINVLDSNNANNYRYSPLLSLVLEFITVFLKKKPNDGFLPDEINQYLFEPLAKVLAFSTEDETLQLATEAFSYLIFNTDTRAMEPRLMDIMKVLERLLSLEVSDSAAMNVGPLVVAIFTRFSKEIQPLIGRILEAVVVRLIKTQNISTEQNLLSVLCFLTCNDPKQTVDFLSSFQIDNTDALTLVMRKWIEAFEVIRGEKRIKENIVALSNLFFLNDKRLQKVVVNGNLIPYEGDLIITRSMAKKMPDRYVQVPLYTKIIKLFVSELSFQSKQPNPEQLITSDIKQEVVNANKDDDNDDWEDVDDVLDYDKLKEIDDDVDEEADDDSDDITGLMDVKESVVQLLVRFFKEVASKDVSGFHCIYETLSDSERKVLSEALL

- Ka (Kap114pΔ(932-941)): 5.09e+06 M⁻¹ and 8.69e+06 M⁻¹ and 6.15e+06 M⁻¹
- Kd (Kap114pΔY939): 37.1 nM
B1: core domain of yTBP (a.a. 61-240) (domain or fragment, S. cerevisiae, UniProt P13393 61-240, looked up)
chain: SGIVPTLQNIVATVTLGCRLDLKTVALHARNAEYNPKRFAAVIMRIREPKTTALIFASGKMVVTGAKSEDDSKLASRKYARIIQKIGFAAKFTDFKIQNIVGSCDVKFPIRLEGLAFSHGTFSSYEPELFPGLIYRMVKPKIVLLIFVSGKIVLTGAKQREEIYQAFEAIYPVLSEFRKM
notes: 61-240; also called yTBP^C; yTBPc; source: E. coli (Rosetta strain), purified (Ni-NTA, HiTrap SP, Superdex 75); not shown: 6xHis, N-terminal, cleaved
